Assay results as given in US20230349919A1 (Regeneron, published 2023).

Experiments:
[1] = target: T1, human IL-4Rα (hIL-4Rα) monomeric protein (human, UniProt P24394 26-232, limits assumed); assay: Biacore (SPR)
T1 construct: also called hIL-4Rα antigen; barcoded hIL-4Rα

[2] = target: T1, human IL-4Rα (hIL-4Rα) monomeric protein; assay: Biacore (SPR); negative log10 of Kd
[3] = target: T1, human IL-4Rα (hIL-4Rα) monomeric protein; assay: barcoded-antigen count on source cell (scRNA-seq)
[4] = target: T2, Ole e 1 (olive, UniProt P19963 1-145); assay: barcoded-antigen count on source cell
T2 construct: Also used oligonucleotide-barcoded for cell staining; also called olive allergen; negative control allergen
T2 sequence (looked up): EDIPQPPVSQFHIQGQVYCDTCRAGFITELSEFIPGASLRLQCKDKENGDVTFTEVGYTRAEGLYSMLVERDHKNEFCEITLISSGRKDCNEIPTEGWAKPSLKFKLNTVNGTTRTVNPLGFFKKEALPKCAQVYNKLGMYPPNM

[5] = target: T3, Der p 2 (house dust mite, UniProt P49278 18-146); assay: barcoded-antigen count on source cell
T3 construct: Also used oligonucleotide-barcoded for cell staining
T3 sequence (looked up): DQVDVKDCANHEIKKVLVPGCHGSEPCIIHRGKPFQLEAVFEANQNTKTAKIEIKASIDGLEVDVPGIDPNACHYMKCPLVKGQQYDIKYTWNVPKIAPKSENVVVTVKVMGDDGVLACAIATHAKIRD

[6] = target: T3, Der p 2; assay: barcode rank score against control Ole e 1
[7] = target: T2, Ole e 1; assay: centered log-ratio of barcode count
Text: (§1) The barcoded antigen library was mapped by the CellRanger software to a custom short-read reference that contained the DNA tag sequences of the four barcoded antigens, namely, Der p 1, Der p 2, Der f 1 and Ole e 1. These tag sequences were quantified across all cells and were normalized by taking the centered log-ratio (CLR) per barcoded antigen across each sample capture. In addition, background antigen signal for each barcoded antigen was removed by DSB (Denoised and Scaled by Background). Both the CLR and the DSB normalized values were used to quantify the target antigen signals, namely, those for Der p 1, Der p 2 and Der f 1, against the control signal, namely, that for Ole e 1.

[8] = target: T3, Der p 2; assay: centered log-ratio of barcode count
Text: as §1

[9] = target: T3, Der p 2; assay: ELISA, coated Der p2
Procedure: After selecting allergen-specific antibodies, relative binding to Der p 1, Der p 2, and Der f 1 were quantified by ELISA. […] Specifically, binding microtiter plates were coated with 100 μl of 2 μg/mL of natural Der p 1, Der p 2, Der f 1, and Ole e 1 in PBS overnight at 4′C. IgE antibodies were prepared at a concentration of 1 μg/mL and serially diluted three-fold in PBS with 0.5% w/v BSA. After washing with 0.05% v/v Tween® 20 in PBS and blocking in PBS with 0.5% w/v BSA, 100 μl of the diluted IgE antibodies were transferred to the plates and incubated for one hour at ambient temperature. Subsequently, 100 μL of anti-mouse IgE antibody conjugated to horse-radish peroxidase (HRP) diluted at 1:5000 was added. The plates were then incubated for one hour at ambient temperature, and washed in 0.05% v/v/Tween® 20 in PBS. Subsequently, the HRP substrate 3,3′,5,5′-tetramethylbenzidine (TMB) was added. The reaction was stopped (with 100 μL of sulfuric acid 2.0 N) and optical density values determined using a plate reader at 450 nm.

B1: Table 1 Line # 21 antibody (SP_B_cell) (antibody, human IgG4, V domains shown)
VH: EVQLVESGGGVVRPGGSLRLSCAASGFTFDDYGMSWVRQAPGKGLEWVSGINWNGGSTGYADSVKGRFTMSRDNAKKSLYLQMNSLRAEDTAFYHCARDDSSSLYGYFQHWGQGTLVTVSS
VL: DIQMTQSPSSLSASVGDRVTITCRASQGISIYLAWYQQKPGKVPKLLIYAASTLQSGVPSRFSGSGSGTDFTLTISSLQPEDVATYYCQNYNSAPRTFGQGTKVEIK
notes: Cloned with human IgG4/human Igk constants for Kd; barcode counts are of the source cell's own IgG
B1 was tested, and the Kd [1] was 177 nM, the negLog10Kd [2] was 6.75 and the REGN560.L15_ab_raw [3] was 17400 counts.

B2: Table 1 Line # 12 antibody (BM_Plasma_cell) (antibody, human IgG4, V domains shown)
VH: QVQLVESGGGVVQPGRSLRLSCAASGFTFSSYGMHWVRQAPGKGLEWVSVISYDGSNKYYADSVKGRFTISRDNSKNTLFLQVNSLRAEDTAVYYCAKEGRTGFDYWGQGTLVTVSS
VL: DIQMTQSPSSLSASVGDRVTITCRARQGISNYLAWFQQKPGKVPKLLIYAASTLQSGVPSRFSGSGSGTDFTLTISSLQPEDVATYYCQKYNSAPWTFGQGTKVEIK
notes: as for B1
Binder B2 has a Kd [1] of 34.5 nM, a negLog10Kd [2] of 7.46 and an REGN560.L15_ab_raw [3] of 3180 counts.

B3: IgE mAb 13_2 (antibody, V domains shown)
VH: EVQLQQSGPELVKPGASVKISCKASGYTFTDYYMNWVKQSHGKSLEWIGDINPNNGGTSYNQKFKGKATLTVDKSSSTAYMELRSLTSEDSAVYYCAYGPPRGPPWFAYWGQGTLVTVSA
VL: DIVLTQSPASLAVSLGQRATISCRASKSVSTSGYSYMHWYQQKPGQPPKLLIYLASNLESGVPARFSGSGSGTDFTLNIHPVEEEDAATYYCQHSRELPWTFGGGTKLEIK
notes: IgE (IGHE, IGKC) from HDM-exposed mouse, LymphNode
B3 was tested, and the Olee1_ab_raw [4] was 1 counts, the Derp2_ab_raw [5] was 46 counts and the Derp2_ab_rank [6] was 0.858. For the same binder, the Olee1_ab_clr [7] was 0.0287 and the Derp2_ab_clr [8] was 1.62.

B4: IgE mAb 17_2 (antibody, V domains shown)
VH: EVHLQQSGPDLVKPGASVMISCQASGYSFTAYYINWVKQSPEKSLEWIGEINPGSGGVIYNRKFEAKATLIVDKSSNTAFMLLTRLTSEDSAIYYCARKGFYQFDYWGQGTTLTVSS
VL: SVVMTQIPKFLVVSAGDRVTITCKASQSVNDGVFWYQQKTGQSPKLVIYHTSNRYTGVSDRFTGSGYGTEFTFTISAVQSEDLAIYFCQQDYTSPLTFGGGTRLEIK
notes: as for B3
In the case of B4, the binding result [9] is reported as “no binding (tested: about 6e-9 M (log10 M about -8.25))”, the Olee1_ab_raw [4] is reported as 3 counts and the Derp2_ab_raw [5] is reported as 6 counts. The Derp2_ab_rank [6] was 0.336, the Olee1_ab_clr [7] was 0.603 and the Derp2_ab_clr [8] was 0.58.

B5: IgE mAb 8_2 (antibody, V domains shown)
VH: QVLLKESGPGLVAPSQSLSITCTVSGFSLTSYGVSWVRQPPGKGLEWLGVIWGDGNTDYHSALISRLSIRKDNSKSQVFLKLNSLQTDDTATYYCAIGSPFAYWGQGTLVTVSA
VL: DVLMTQTPLSLPVSLGDQVSISCRSSQNIVHSTGNTYLEWYLQKPGQSPKLLIFKVSNRLSGVPDRFSGSGSGTDFTLNISRVEAADLGIYSCFQGSHVPFTFGSGTKLEIK
notes: IgE (IGHE, IGKC) from HDM-exposed mouse, BoneMarrow
Binder B5 has an Olee1_ab_raw [4] of 0 counts, a Derp2_ab_raw [5] of 22 counts and a Derp2_ab_rank [6] of 0.837. For the same binder, the Olee1_ab_clr [7] was -1.13 and the Derp2_ab_clr [8] was 0.655.

B6: Table 1 Line # 25 antibody (SP_B_cell) (antibody, human IgG4, V domains shown)
VH: EVQLVESGGTVERPGGSLRLSCAASGFTFDDYGMSWVRQAPGKGLEWVSGTSWNGGHIGYADSVKGRFIISRDNAKNSLYLQINSLRVEDTALYYCTRDSTSSWYGVFDFWGQGTLVTVSS
VL: DIQMTQSPSSLSASVGDRVTITCRASQDISINLAWYQQKPGKTPKLLIYAAASTLQSGVPSRFSGSGSGTDFTLTISSLQPEDVATYYCQNYNSAPRTFGQGTKVEIK
notes: as for B1
B6 showed a Kd [1] of 97.6 nM, a negLog10Kd [2] of 7.01 and an REGN560.L15_ab_raw [3] of 10600 counts.

B7: Table 1 Line # 19 antibody (BM_Plasma_cell) (antibody, human IgG4, V domains shown)
VH: EVQLVESGGGLVQPGRSLRLSCAASGFTFDDFAMHWVRQEPGKGLEWVSGISWNGGNIGYADSVKGRFTISRDNAKNSLYLQMNSLRAEDTAFYYCAKDVSSAWYGYFDYWGQGTLVTVSS
VL: DIQMTQSPSTLSASVGDRVTITCRASQSVSSWLAWYQQKPGKAPKLLIYKASSLESGVPLRFSGSGSGTEFTLTISSLQPDDFATYYCQVYNSDSRTFGQGTKVEIK
notes: as for B1
In the case of B7, the Kd [1] is reported as 12.1 nM, the negLog10Kd [2] is reported as 7.92 and the REGN560.L15_ab_raw [3] is reported as 2060 counts.

B8: Table 1 Line # 3 antibody (BM_Plasma_cell) (antibody, human IgG4, V domains shown)
VH: EVQLVESGGGLVQPGRSLRLSCAASGFTFDDYAMHWVRQVTGKGLEWVSGINWNSGNIGYADSVRGRFTISRDNAKNSLYLQMNSLRAEDTALYYCAKDSGSSWYGYFDLWGRGTLVTVSS
VL: DIQMTQSPSTLSASVGDRVTITCRASQSISRWLAWYQQKPGKAPKFLIYKASSLESGVPSRFSGSGSGTEFTLTISSLQPDDFATYYCQQYNSDSRTFGQGTKVEIK
notes: as for B1
Binder B8 has a Kd [1] of 537 nM, a negLog10Kd [2] of 6.27 and an REGN560.L15_ab_raw [3] of 6320 counts.

B9: Table 1 Line # 26 antibody (SP_B_cell) (antibody, human IgG4, V domains shown)
VH: QVQLQQSGPGLVKPSQTLSLTCAISGDSVSSNIATWNWIRQSPSRGLECLGRTYYRSKWYSDYAVSVKSRITINPDTSKNQFSLQLNSVTPEDTAVYYCARGWNYGYYFDYWGQGTLVTVSS
VL: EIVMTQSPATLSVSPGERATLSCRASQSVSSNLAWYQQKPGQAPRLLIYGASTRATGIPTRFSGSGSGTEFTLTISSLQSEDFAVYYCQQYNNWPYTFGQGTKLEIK
notes: as for B1
B9 was tested, and the Kd [1] was 112 nM, the negLog10Kd [2] was 6.95 and the REGN560.L15_ab_raw [3] was 10400 counts.

B10: Table 1 Line # 5 antibody (BM_Plasma_cell) (antibody, V domains shown)
VH: QVQLVQSGAEVKKPGASVKVSCKASGYTFTGYYIYWVRQAPGQGLEWMGWINPNSGGTNYAQKFQGRVTMTRDTSISTVYMELSRLRSDDAAVYYCAKRKRGLDGWGQGTTVTVSS
VL: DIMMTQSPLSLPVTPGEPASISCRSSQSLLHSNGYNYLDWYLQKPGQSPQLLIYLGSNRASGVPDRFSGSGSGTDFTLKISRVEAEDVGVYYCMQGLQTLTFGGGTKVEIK
notes: as for B1
With B10 the Kd [1] was 23.8 nM, the negLog10Kd [2] was 7.62 and the REGN560.L15_ab_raw [3] was 4410 counts.

B11: Table 1 Line # 28 antibody (SP_B_cell) (antibody, human IgG4, V domains shown)
VH: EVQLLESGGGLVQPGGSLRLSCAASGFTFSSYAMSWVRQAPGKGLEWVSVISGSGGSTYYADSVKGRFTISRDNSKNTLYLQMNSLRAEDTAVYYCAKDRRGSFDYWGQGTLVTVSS
VL: DIQMTQSPSSVSASVGDRVTITCRASQGISSWFAWYQQKPGKAPKLLIYAASSLLSGVPSRFSGSGSGTDFTLTISSLQPEDFATYYCQQANSFPFTFGPGTKVDFK
notes: as for B1
With B11 the Kd [1] was 146 nM, the negLog10Kd [2] was 6.84 and the REGN560.L15_ab_raw [3] was 9450 counts.

B12: Table 1 Line # 29 antibody (SP_B_cell) (antibody, V domains shown)
VH: EVQLLESGGGLVQPGGSLRLSCAASGFTFSSYAMSWVRQAPGKGLEWVSAISGSGGSTYYADSVKGRFTISRDNSKNTLYLQMNSLRAEDTAIYYCARYGNWNYIWGQGTLVTVSS
VL: DIQMTQSPSSVSASVGDRVTITCRASQGISSWLAWYQQKPGKAPKLLIYAASSLQSGVPSRFSGSGSGTDFTLTISSLQPEDFATYYCQQANSFPLTFGGGTKVEIK
B12 showed a Kd [1] of 54.8 nM, a negLog10Kd [2] of 7.26 and an REGN560.L15_ab_raw [3] of 9190 counts.

B13: Table 1 Line # 32 antibody (SP_B_cell) (antibody, human IgG4, V domains shown)
VH: EVQLVESGGGLVQPGRSLRLSCAASGFTFDDYAMHWVRQAPGKGLEWVSGVNWNGVSLGYADSVKGRFTISRDNAKNSLYLQMNSLRAEDTAFYYCAKDSGSYHYYYGMDGWGQGTTVTVSS
VL: DIQMTQSPSSLSASVGDRVTITCRASQGIRNDLGWYQQKPGKDPKRLIFAATNLHGGVPSRFSGGVSGTEFTLTISSLQPEDFATYYCLQHNSYPLTFGGGTKVEIK
notes: as for B1
Binder B13 has a Kd [1] of 58.1 nM, a negLog10Kd [2] of 7.24 and an REGN560.L15_ab_raw [3] of 7910 counts.

B14: Table 1 Line # 6 antibody (BM_Plasma_cell) (antibody, human IgG4, V domains shown)
VH: EVQLVESGGDLVQPGRSLRLSCAASGFTFDDYAMHWVRQAPGKGLEWVSGISWNGNSLGYVDSVKGRFTVSRDNAKNSLYLQMNSLRAEDTALYYCTKDTGSYHSYYGLDVWGQGTTVTVSS
VL: DIQMTQSPSSLSASVGDRVTITCRASQGIRNDLGWYQQKPGKAPKRLIYAASSLPSGVPSRFSGSGSGTEFTLTISSLQPEDFATYYCLQLNTYPLTFGGGTKVEIK
notes: as for B1
With B14 the Kd [1] was 136 nM, the negLog10Kd [2] was 6.87 and the REGN560.L15_ab_raw [3] was 4140 counts.

B15: Table 1 Line # 24 antibody (SP_B_cell) (antibody, human IgG4, V domains shown)
VH: EVQLVESGGDLVQPGTSLRLSCAASGFTFDDYAMHWVRQTPGQGLEWVSGINWNSGTIGYADSVKGRFTISRDNAKNSLFLQMNSLRAEDSAFYYCTKDIGGSYYASDFWGQGTLVTVSS
VL: DIQMTQSPSSLSASVGDRVTITCRASQRISTDLNWYQQKSGKAPNLLIYGASSLQSGVPSRFSGSGSGTDFILTISTLQPEDFATYYCQQSYSTPFTFGPGTKVDIK
notes: as for B1
B15 was tested, and the Kd [1] was 207 nM, the negLog10Kd [2] was 6.68 and the REGN560.L15_ab_raw [3] was 10800 counts.
